Laboratory results reported in US20240254246A1 (PROMETHEUS BIOSCIENCES, published 2024).
Positions count from the first letter of the chain named. Read-outs that look alike come from different tables or passages of the source.

T1: CDH13 (human, UniProt P55290 139-693)
T1 construct: whole, on cells; also called hit #16
T1 sequence (looked up): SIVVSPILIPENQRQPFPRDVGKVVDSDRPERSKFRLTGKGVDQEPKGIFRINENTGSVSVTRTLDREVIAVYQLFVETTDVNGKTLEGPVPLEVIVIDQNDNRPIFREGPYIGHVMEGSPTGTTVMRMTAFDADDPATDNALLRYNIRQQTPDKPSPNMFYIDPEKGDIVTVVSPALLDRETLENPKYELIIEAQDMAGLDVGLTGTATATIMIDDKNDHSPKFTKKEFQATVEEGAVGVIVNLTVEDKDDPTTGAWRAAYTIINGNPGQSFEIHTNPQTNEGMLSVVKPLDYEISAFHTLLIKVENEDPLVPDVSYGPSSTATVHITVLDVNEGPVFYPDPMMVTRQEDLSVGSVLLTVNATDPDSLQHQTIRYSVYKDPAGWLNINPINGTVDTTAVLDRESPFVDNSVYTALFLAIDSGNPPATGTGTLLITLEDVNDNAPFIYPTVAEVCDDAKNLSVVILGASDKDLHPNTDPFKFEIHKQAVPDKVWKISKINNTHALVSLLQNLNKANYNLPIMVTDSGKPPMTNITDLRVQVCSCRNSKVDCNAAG

T2: cynomolgus CD30L expressed on cells (cynomolgus, UniProt A0A7N9CVX7 1-234)
T2 sequence: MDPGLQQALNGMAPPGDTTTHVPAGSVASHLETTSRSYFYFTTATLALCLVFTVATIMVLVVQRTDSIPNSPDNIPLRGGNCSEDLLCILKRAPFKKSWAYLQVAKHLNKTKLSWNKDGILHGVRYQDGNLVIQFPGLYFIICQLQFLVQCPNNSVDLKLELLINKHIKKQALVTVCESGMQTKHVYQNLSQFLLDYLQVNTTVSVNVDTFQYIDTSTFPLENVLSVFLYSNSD

T3: human CD30L expressed on cells (human, UniProt P32971 1-234)
T3 sequence: T2 sequence with T19A, T20M, E32G, F41L, I75V, R78K, V204I, V227I

T4: human CD30L expressed on cells (human, UniProt P32971 1-234)
T4 construct: whole, on cells; also called huCD30L; B16-huCD30L cells
T4 sequence (looked up): T2 sequence with T19A, T20M, E32G, F41L, I75V, R78K, V204I, V227I

T5: cynomolgus CD30L expressed on HEK293 cells (cynomolgus, UniProt A0A7N9CVX7 1-234)
T5 sequence: T2 sequence

T6: human CD30L expressed on B16 cells (human, UniProt P32971 1-234)
T6 construct: whole, on cells; B16 cell line transfected to express human CD30L; also called B16-huCD30L; B16-rhCD30L
T6 sequence (looked up): T2 sequence with T19A, T20M, E32G, F41L, I75V, R78K, V204I, V227I

T7: recombinant human CD30L (human, UniProt P32971 63-234)
T7 construct: Purified recombinant protein of ELISA, BLI, Carterra and KinExA; also called rhCD30L; huCD30L
T7 sequence (looked up): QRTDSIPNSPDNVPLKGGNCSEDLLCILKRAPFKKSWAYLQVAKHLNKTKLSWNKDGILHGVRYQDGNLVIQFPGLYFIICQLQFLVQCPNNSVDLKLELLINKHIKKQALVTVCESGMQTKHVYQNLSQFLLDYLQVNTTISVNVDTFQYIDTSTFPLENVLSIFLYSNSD

T8: recombinant cynomolgus CD30L (cynomolgus, UniProt A0A7N9CVX7 63-234)
T8 construct: Purified recombinant protein; also called rcyCD30L; cyno CD30L
T8 sequence: T7 sequence (looked up) with V13I, K16R, I142V, I165V

T9: recombinant mouse CD30L (mouse, UniProt P32972 68-239)
T9 construct: Purified recombinant protein; also called rmCD30L
T9 sequence (looked up): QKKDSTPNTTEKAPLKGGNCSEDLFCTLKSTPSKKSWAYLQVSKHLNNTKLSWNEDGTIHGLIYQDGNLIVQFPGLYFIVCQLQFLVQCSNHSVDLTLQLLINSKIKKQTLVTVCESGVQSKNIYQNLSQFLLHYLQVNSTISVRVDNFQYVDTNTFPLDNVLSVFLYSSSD

T10: recombinant cynomolgus CD30L protein (cynomolgus, UniProt A0A7N9CVX7 63-234)
T10 construct: Recombinant protein used in ELISA; also called cyCD30L
T10 sequence: T7 sequence (looked up) with V13I, K16R, I142V, I165V

T11: recombinant human CD30L protein (human, UniProt P32971 63-234)
T11 construct: Recombinant protein used in ELISA; also called huCD30L
T11 sequence (looked up): T7 sequence (looked up)

B1: anti-CD30L antibody clone 2 with IgG1 constant region SEQ ID NO: 502 (antibody, V domains shown)
VH: EVQLVESGGGLVQPGRSLRLSCAASGFNFDDYAMHWVRQAPGKGLEWVSGISWRSGNIGYAGSVKGRFTISRDNAKNSLYLQMNSLRPEDSALYYCAKDKGIGFNWNYEGFDYWGQGTLVTVSS
VL: DIQMTQSPSSLSASVGDRVTITCRASQGISNHLAWFQQKPGKAPKSLIYAASSLQSGVPSKFSGSGSGTDFTLTISSLQPEDFATYYCQQYVTYPLTFGGGTKVEIK
notes: copies: 2 + 2
B2: anti-CD30L Reference 1 antibody (antibody, human IgG1, lambda, V domains shown)
VH: QVQLQESGPGLVKPSETLSLTCTVSGGSISSYIWSWIRQPAGKGLEWIGRIYASGNTNYNPSLKSRVTISVDTSKNQFSLKLSSMTAADTAVYYCARDYRVAGTYYYYYGLDVWGQGTTVTVSS
VL: QSALTQPASVSGSPGQSITISCTGTSSDVGVYDYVSWYQQHPGKAPKLMIYEVSNRPSGVSNRFSGSKSGNTASLTISGLQTEDEADYYCSSYTSRSTWVFGGGTKLTVLG
B3: anti-CD30L antibody clone 80 (antibody, V domains shown)
VH: EVQLVESGGGLVQPGGSLRLSCEVSGFTFSSYDMHWVRQVTGTGLEWVSSIGIGGDTYYPGSVKGRFTISRENAKNSLYLQMNSLRGGDTGVYYCARGEWDLLWYFMDVWGKGTTVTVSS
VL: B1 VL with V15I, N31S, H32W, F36Y, S46L, K61R, Y91A, V92N, T93S, Y94F
notes: purified recombinant IgG (held by anti-human biosensors); mouse strain #1
B4: anti-CD30L antibody clone 82 (antibody, V domains shown)
VH: EVQLVESGGGLVQPGGSLRLSCAVSGITFSNAWMSWVRQAPGKGLEWVGRIKSKTYGGTTDYAAPVKGRFIISRDDSKDTLYLQMNSLKTEDTAIYYCTTDPWNYVNYNYFMDVWGKGTTVTVSS
VL: DIQMTQSPSSLSASVGDRVTITCRASQDIRNYLAWYQQKPGKITHLLVYAASTLQSGVPSRFSGSGSGTDFTLTINSLQPEDVATYYCQNYFSVPLTFGGGTKVEIK
notes: as for B3
B5: Clone 1 (antibody, V domains shown)
VH: QVQLQESGPGLVKPSETLSLTCTVSGGSISGYYWSWIRQPPVKGLEWIGYIFYSGYTKYNPSLKSRVTISVDTSKNQFSLKLSSVTAADTAVYYCARDRWDFDYWGQGALVTVSS
VL: AIQMTQSPSYLSASVGDRVTIACRASQGIRNNLGWYQQKPGKAPKLLIYAESSLQSGVPSRFSGSGSGTDFTLTISSLQPEDFATYYCLQDFNYPYTFGQGTKLEIK
notes: also called CLONE_1 (parental)
B6: Clone 2 (antibody, V domains shown)
VH: B1 VH
VL: B1 VL
notes: also called CLONE_2 (parental)

Tests used:
[1] = molecular target: T1, CDH13; experiment: cell microarray, library and confirmation screens
[2] = molecular target: T2, cynomolgus CD30L expressed on cells; experiment: cell-based or functional assay
[3] = molecular target: T3, human CD30L expressed on cells; experiment: cell-based or functional assay
[4] = molecular target: T4, human CD30L expressed on cells; experiment: flow cytometry, blocking of huCD30 binding to B16-huCD30L cells
[5] = molecular target: T4, human CD30L expressed on cells; experiment: flow cytometry, B16-huCD30L cells
Procedure: Anti-CD30L antibody binding to a CD30L target was determined by flow cytometry, using B16 cells transfected to express human CD30L (compared to non-transfected B16), and using HEK293 cells transfected to express cynomolgus CD30L (compared to non-transfected HEK293). […] Cell surface bound antibodies were detected using a fluorescently labeled anti-human-IgG or anti-mouse IgG, depending on the Fc portion of the antibodies. After incubation with the secondary antibody, the cells were washed, fixed in a paraformaldehyde solution, and analyzed by flow cytometry to detect antibody binding.

[6] = molecular target: T4, human CD30L expressed on cells; experiment: cell-based or functional assay; remark: listed apart in the source
[7] = molecular target: T5, cynomolgus CD30L expressed on HEK293 …; experiment: cell-based or functional assay
[8] = molecular target: T4, human CD30L expressed on cells; experiment: flow cytometry, PMA/ionomycin-stimulated primary lymphocytes, Patient 1 (CD, #04-021)
Source text: (§1) Peripheral blood mononuclear cells (PBMCs) were isolated from freshly collected whole blood from Ulcerative Colitis (UC) and Crohn's Disease (CD) patients, by conventional density gradient centrifugation. To induce CD30L expression on primary lymphocytes, the isolated cells were stimulated overnight with Phorbol 12-myristate 13-acetate (PMA) and ionomycin. […] After washing to remove unbound antibodies, the cells were fixed in a paraformaldehyde solution and analyzed by flow cytometry to quantify cell surface antibody binding.

[9] = molecular target: T4, human CD30L expressed on cells; experiment: flow cytometry, PMA/ionomycin-stimulated primary lymphocytes, Patient 4 (CD, #01-051)
Source text: as §1

[10] = molecular target: T4, human CD30L expressed on cells; experiment: flow cytometry, PMA/ionomycin-stimulated primary lymphocytes, Patient 3 (UC, #02-180)
Source text: as §1

[11] = molecular target: T4, human CD30L expressed on cells; experiment: flow cytometry, PMA/ionomycin-stimulated primary lymphocytes, Patient 2 (UC, #03-041)
Source text: as §1

[12] = molecular target: T6, human CD30L expressed on B16 cells; experiment: flow cytometry, binding to B16 cells expressing human CD30L (MFI)
[13] = molecular target: T6, human CD30L expressed on B16 cells; experiment: cell-based or functional assay
[14] = molecular target: T7, recombinant human CD30L; experiment: ELISA, binding to rhCD30L (OD 450 nm)
[15] = molecular target: T8, recombinant cynomolgus CD30L; experiment: ELISA on recombinant protein
[16] = molecular target: T9, recombinant mouse CD30L; experiment: ELISA on recombinant protein
[17] = molecular target: T7, recombinant human CD30L; experiment: ELISA on recombinant protein
[18] = molecular target: T6, human CD30L expressed on B16 cells; experiment: flow cytometry on B16 cells expressing hCD30L
[19] = molecular target: T7, recombinant human CD30L; experiment: recombinant blocking ELISA; competitor CD30
[20] = molecular target: T7, recombinant human CD30L; experiment: BLI, CD30 association to CD30L held by captured IgG; competitor rhCD30
Procedure: Briefly, individual anti-human biosensors were loaded with purified IgG (normalized to 10 μg/mL) and a baseline was measured for each biosensor. Biosensors were saturated with biotin and with polyclonal hulgG and a baseline was measured. Loaded biosensors were then allowed to bind CD30L and the association rate was measured for the binding. Biosensors were moved to buffer wells to measure the dissociation rate.

[21] = molecular target: T6, human CD30L expressed on B16 cells; experiment: flow cytometry, binding to B16 cells expressing human CD30L (MFI); remark: listed apart in the source
[22] = molecular target: T7, recombinant human CD30L; experiment: ELISA, binding to rhCD30L (OD 450 nm); remark: listed apart in the source
[23] = molecular target: T10, recombinant cynomolgus CD30L protein; experiment: ELISA, 1/500 dil
[24] = molecular target: T10, recombinant cynomolgus CD30L protein; experiment: ELISA, 1/50 dil
[25] = molecular target: T11, recombinant human CD30L protein; experiment: ELISA, CD30 competitor, undil
[26] = molecular target: T11, recombinant human CD30L protein; experiment: ELISA, CD30 competitor, 1/1000 dil
[27] = molecular target: T11, recombinant human CD30L protein; experiment: ELISA, CD30 competitor, 1/10 dil
[28] = molecular target: T11, recombinant human CD30L protein; experiment: ELISA, CD30 competitor, 1/100 dil
[29] = molecular target: T10, recombinant cynomolgus CD30L protein; experiment: ELISA, 1/5000 dil

| Binder | EC50 [8] | EC50 [9] | EC50 [10] | EC50 [11] | rcyCD30L (+) ELISA [15] | rmCD30L (+) ELISA [16] | rhCD30L (+) ELISA [17] | hCD30L B16 (+) FLOW [18] | IC50 [19] | rhCD30L:rhCD30 Blocking [20] | Elisa Binding (OD) [23] | Elisa Binding (OD) [24] | % inhibition [25] | % inhibition [26] | % inhibition [27] | % inhibition [28] | Elisa Binding (OD) [29] | further results |
| --- | --- | --- | --- | --- | --- | --- | --- | --- | --- | --- | --- | --- | --- | --- | --- | --- | --- | --- |
| B1 |  |  |  |  |  |  |  |  |  |  |  |  |  |  |  |  |  | binding result [1]: no binding (tested: 5 µg/mL); IL-8 release dual cell assay, fold better IC50 than reference 1 (ref1) anti-CD30L [2]: 2.6 fold; IL-8 release dual cell assay, fold better IC50 than reference 1 (ref1) anti-CD30L [3]: 2 fold |
| B2 | 3.63 nM | 2.82 nM | 3.07 nM | 3.12 nM |  |  |  |  |  |  |  |  |  |  |  |  |  | IC50 [4]: 2.77 nM; EC50 [5]: 1.74 nM; Inhibition of IL-8 release in a dual cell assay (B16-huCD30L cells + K299 cells) IC50 [6]: 1.74 nM; Inhibition of IL-8 release in a dual cell assay (HEK293-cyCD30L cells + K299 cells) IC50 [7]: 0.68 nM |
| B3 |  |  |  |  | 0.475 | 0.048 | 0.941 | 8.3e+06 | 2.74 nM | 0.0635 |  |  |  |  |  |  |  | EC50 (read off the curve) [12]: ~1 nM; IC50 (read off the curve), IL-8 release, dual cell assay (B16-huCD30L cells + K299 cells) [13]: ~2 nM; EC50 (read off the curve) [14]: ~0.2 nM |
| B4 |  |  |  |  | 0.982 | 0.048 | 1.41 | 8.42e+06 | 3.51 nM | 0.071 |  |  |  |  |  |  |  | EC50 (read off the curve) [21]: ~3 nM; EC50 (read off the curve) [22]: ~0.1 nM |
| B5 | 7.45 nM | 4.53 nM | 5.57 nM | 5.43 nM |  |  |  |  |  |  | 2.87 OD | 2.83 OD | 98% | 0% | 98% | 34% | 1.16 OD |  |
| B6 | 2.4 nM | 1.72 nM | 1.71 nM | 1.55 nM |  |  |  |  |  |  | 3.18 OD | 3.76 OD | 98% | 1% | 98% | 45% | 1.23 OD |  |
